The test has as its target T1, Staphylococcal Enterotoxin B (SEB) (UniProt P01552 28-266).
T1 sequence: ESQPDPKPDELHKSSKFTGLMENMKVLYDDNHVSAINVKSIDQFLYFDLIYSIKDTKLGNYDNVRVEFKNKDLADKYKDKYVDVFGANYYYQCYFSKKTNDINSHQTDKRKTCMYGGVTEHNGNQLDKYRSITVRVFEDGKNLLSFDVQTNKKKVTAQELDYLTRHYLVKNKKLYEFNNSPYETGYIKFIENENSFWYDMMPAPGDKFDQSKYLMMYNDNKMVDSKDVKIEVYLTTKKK
The test is described as follows: SPR on SEB-coated chip.

Consider 1 molecule from patent publication US20150203548A1 (GOVERNMENT OF THE UNITED STATES OF AMERICA AS REPRESENTED …, published 2015).

B1: sdAb A3 lacking the disulfide (A3-ds) (VHH)
VHH: EVQLVESGGGLVQAGDSLRLSATASGRTFSRAVMGWFRQAPGKEREFVAAISAAPGTAYYAFYADSVRGRFSISADSAKNTVYLQMNSLKPEDTAVYYVAADLKMQVAAYMNQRSVDYWGQGTQVTVSSAAALEHHHHHH
Turning to B1, the binding result is recorded as “binds”.
